Molecular target: T1, NK92 cells (Homo sapiens, UniProt O95256+Q13478)
T1 sequence (Q13478 19-541): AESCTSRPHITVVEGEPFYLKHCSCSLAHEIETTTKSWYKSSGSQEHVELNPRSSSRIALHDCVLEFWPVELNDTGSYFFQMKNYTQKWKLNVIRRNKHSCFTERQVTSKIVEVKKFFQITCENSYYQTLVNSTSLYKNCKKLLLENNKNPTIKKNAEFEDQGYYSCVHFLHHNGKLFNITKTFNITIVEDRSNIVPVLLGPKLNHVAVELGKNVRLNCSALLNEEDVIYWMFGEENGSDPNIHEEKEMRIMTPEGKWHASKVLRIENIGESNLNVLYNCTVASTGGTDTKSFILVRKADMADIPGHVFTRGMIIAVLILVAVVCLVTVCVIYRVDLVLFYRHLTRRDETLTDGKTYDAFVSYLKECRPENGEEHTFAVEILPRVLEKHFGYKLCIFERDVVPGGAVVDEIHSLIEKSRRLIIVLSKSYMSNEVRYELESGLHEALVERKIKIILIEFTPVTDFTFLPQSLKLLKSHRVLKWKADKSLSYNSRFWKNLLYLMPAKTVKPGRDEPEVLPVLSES
T1 sequence (O95256 20-599): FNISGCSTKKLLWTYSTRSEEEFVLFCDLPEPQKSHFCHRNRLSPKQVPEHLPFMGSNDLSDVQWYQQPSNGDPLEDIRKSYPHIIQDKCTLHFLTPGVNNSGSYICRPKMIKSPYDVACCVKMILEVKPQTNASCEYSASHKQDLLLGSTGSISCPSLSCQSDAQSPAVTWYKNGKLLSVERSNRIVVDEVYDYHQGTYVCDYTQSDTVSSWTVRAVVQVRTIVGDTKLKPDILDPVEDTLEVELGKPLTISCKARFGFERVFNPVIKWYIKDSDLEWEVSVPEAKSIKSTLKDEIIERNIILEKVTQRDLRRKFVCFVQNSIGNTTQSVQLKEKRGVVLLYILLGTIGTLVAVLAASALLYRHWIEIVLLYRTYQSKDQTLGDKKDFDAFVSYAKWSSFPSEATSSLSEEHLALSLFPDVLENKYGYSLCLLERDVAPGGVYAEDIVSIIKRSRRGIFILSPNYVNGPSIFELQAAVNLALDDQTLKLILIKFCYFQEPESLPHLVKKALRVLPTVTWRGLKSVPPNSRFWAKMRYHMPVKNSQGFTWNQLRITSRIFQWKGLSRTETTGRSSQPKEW
Test: IFN gamma secretion assay in NK92 cells (Example 10)
Type: cell-based
Details: 1 ng/ml IL-12, 16-20 h, read-out: EC50 IFNγ secretion NK92 assay
Description: The IFNγ-secretion stimulating activity of the unconjugated IL-18 variants and corresponding IL-18 immunocytokines was evaluated on NK92 cell line. The NIK cell line NK-92 derived from a patient with lymphoma (ATCC, Cat #CRL-2407) was cultured in aMIEM medium supplemented with 12.5% FCS, 12.5% horse serum (HS), 50 uM B-mercaptoEthanol, and 2 ng/ml of recombinant Human Interleukin-2 (IL-2).
On the day of experiment, cells were harvested and washed with aNMEM medium without IL-2 and resuspended in medium (w/o IL-2) containing 1 ng/ml of recombinant human Interleukin-12 (Sinofliologicals, Cat #CT011-H08H). After counting, cells were seeded at 100 000 cells/well in a 384 well titer plate and incubated at 37° C./5% CO2. […]
After 16-20 h incubation at 37° C./5% CO2, 5 μl of supernatant were carefully transferred to a 384 microwells OPTIPlate (Perkin Elmer; Cat #6007270) and Interferon-gamma (IFNγ) levels measured using the Human IFNγ AlphaLISA Assay Kit (Perkin Elmer, Cat #AL217C). […] AlphaLisa signal was then measured on an Enspire plate reader (Perkin Elmer) using 680 and 615 nm as excitation and emission wavelengths respectively. Half maximal effective concentration (EC50) was calculated based on a variable slope, four parameter analysis using GraphPad PRISM software.

In the case of “Composition B: immunocytokine: Atezolizumab/Tecentriq (anti-PD-L1) conjugated to IL-18 polypeptide SEQ ID NO: 30”, the EC50 is reported as 1 pM.
